Experimental data taken from patent US20240368263A1 (PROMETHEUS BIOSCIENCES, published 2024).

T1: Fas/TNFSF6 (R&D Systems, cat. no. 126-FL/CF) (UniProt P48023 134-281)
T1 sequence (looked up): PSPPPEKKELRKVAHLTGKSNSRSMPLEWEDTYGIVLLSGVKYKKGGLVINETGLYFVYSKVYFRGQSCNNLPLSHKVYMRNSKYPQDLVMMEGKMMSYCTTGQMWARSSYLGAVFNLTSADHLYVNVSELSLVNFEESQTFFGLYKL

T2: membrane-associated human TL1A on transfected HEK293 cells (human, UniProt O95150 1-251)
T2 construct: whole, on cells
T2 sequence (looked up): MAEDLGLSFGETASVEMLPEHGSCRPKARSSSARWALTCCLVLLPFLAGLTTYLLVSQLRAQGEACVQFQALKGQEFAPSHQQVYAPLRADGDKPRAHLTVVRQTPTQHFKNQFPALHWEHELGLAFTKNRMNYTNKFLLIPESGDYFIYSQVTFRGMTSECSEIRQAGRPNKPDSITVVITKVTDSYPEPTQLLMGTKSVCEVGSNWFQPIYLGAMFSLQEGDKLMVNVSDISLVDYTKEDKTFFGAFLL

T3: human TL1A (Fitzgerald, Prod. #30R-AT070) (human, UniProt O95150 72-251, limits assumed, biotinylated with EZ-Link Sulfo-NHS-LC-Biotin where used as soluble antigen)
T3 construct: also called TNFSF15; biotinylated human TL1A
T3 sequence (looked up): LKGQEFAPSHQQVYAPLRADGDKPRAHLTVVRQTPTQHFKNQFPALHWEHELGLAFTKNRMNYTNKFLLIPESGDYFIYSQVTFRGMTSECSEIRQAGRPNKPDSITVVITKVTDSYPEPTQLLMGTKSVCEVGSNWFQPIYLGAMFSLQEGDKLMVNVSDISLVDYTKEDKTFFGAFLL

T4: human TL1A (endogenous, human whole blood assay) (human, UniProt O95150 1-251, limits assumed)
T4 sequence (looked up): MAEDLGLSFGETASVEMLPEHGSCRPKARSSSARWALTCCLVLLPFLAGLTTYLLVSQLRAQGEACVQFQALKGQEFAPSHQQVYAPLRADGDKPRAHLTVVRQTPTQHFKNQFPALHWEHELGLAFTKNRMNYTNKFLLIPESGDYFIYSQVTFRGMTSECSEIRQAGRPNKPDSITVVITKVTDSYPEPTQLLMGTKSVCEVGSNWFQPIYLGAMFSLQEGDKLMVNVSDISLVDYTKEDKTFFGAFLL


How the values were obtained:
[1] = molecular target: TRAIL/TNFSF10 (R&D Systems, cat. no. 375-TL/CF) (UniProt P50591 114-281); test: ELISA, antigen coated at 1 µg/ml, Fab titrated
Experimental: (§1) Next, all the Fab variants were characterized for their selectivity for human TL1A relative to other TNFSF members TRAIL, LIGHT and Fas. […] The plate was washed 3 times with PBS-T and blocked with 100 μl of 1% BSA/PBS. The block was discarded and the Fab variants or control antibodies (Fas/TNFSF6, R&D Systems, cat. no. AF126; TRAIL/TNFSF10, R&D Systems, cat. no. AF375; LIGHT/TNFSF14, R&D Systems, cat. no. AF664) were titrated in 50 μl 1% BSA/PBS and incubated for 1 h at 25° C. The plate was washed 3 times with PBS-T and secondary HRP-conjugated antibody (diluted 5,000-fold in 1% BSA/PBS) was added for 1 h at 25° C. The plate was washed 3 times with PBS-T and developed.

[2] = molecular target: LIGHT/TNFSF14 (R&D Systems, cat. no. 664-LI/CF) (UniProt O43557 74-240); test: ELISA, antigen coated at 1 µg/ml, Fab titrated
Experimental: as §1

[3] = molecular target: T1, Fas/TNFSF6 (R&D Systems, cat. no. …); test: ELISA, antigen coated at 1 µg/ml, Fab titrated
Experimental: as §1

[4] = molecular target: T2, membrane-associated human TL1A on …; test: flow cytometry, HEK293 cells transfected with human TL1A
Experimental: All the Fab variants were tested for binding to membrane-associated human TL1A. For these studies a HEK293 cell line that had been transfected with human TL1A was used. The 293 cells expressing membrane bound human TL1A were maintained in DMEM containing L-glutamine, glucose, sodium pyruvate, and phenol red (ThermoFisher cat #11995-065) plus 10% fetal bovine serum, 1X penicillin-streptomycin (Fisher cat #15140122) and 2 μg/ml puromycin (Gibco cat #A11138-03) in a 37° C. incubator with 5% CO2. Three days prior to the assay, a T-75 flask was seeded with 3×10⁶ cells so that the flask was 90-95% confluent on the day of the assay. The media was aspirated and the cell monolayer was gently washed with 5 ml PBS. Adherent cells were removed by repeatedly pipetting 10 ml ice cold 1% BSA/PBS against the monolayer. The cells were counted and 5×10⁵ were aliquoted for each sample to be analyzed. The cells were collected by centrifuging at 300× g at 4° C. for 5 minutes and the wash was discarded. The cells were resuspended in 100 μl Fab or IgG diluted in 1% BSA/PBS and placed on ice for 30 min. Next, the cells were washed with 1 ml 1% BSA/PBS and collected by centrifuging at 300× g at 4° C. for 5 min. The wash was discarded and 100 μl secondary goat F (ab′) 2 anti-human kappa FITC (Southern Biotech cat #2062-02) or goat F (ab′) 2 anti-human IgG PE (Southern Biotech cat #2043-09) conjugate, diluted 1:200 in BSA/PBS was added. Cells were placed on ice for 30 min. Finally, the cells were washed with 1 ml BSA/PBS, collected by centrifuging at 300× g at 4° C. for 5 min. The wash was removed and the cells were resuspended in 500 μl 1% BSA/PBS. One drop of Sytox AADvanced ReadyFlow Reagent (ThermoFisher cat #R37173) was added per sample and the samples were analyzed on the Attune NXT Flow Cytometer (ThermoFisher).

[5] = molecular target: T3, human TL1A (Fitzgerald, Prod. …); test: two ELISA formats: Fab on coated TL1A; captured Fab with biotinylated TL1A
Experimental: Fabs with the CDRs shown in Tables 19 to 22 were tested for binding to human TL1A in multiple formats. Next, uniform (saturating) quantities of soluble Fab variants were captured on the surface of an ELISA plate and soluble, biotinylated human TL1A was titrated as shown in FIGS. 10 to 13.

[6] = molecular target: T4, human TL1A (endogenous, human whole …); test: cell-based or functional assay

TRAIL/TNFSF10 (R&D Systems, cat. no. 375-TL/CF), sequence (P50591 114-281 limits assumed): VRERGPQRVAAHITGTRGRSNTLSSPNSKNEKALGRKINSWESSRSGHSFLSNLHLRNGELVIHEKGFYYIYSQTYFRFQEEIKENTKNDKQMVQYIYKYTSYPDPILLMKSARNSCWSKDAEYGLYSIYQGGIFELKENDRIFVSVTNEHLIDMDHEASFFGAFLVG
LIGHT/TNFSF14 (R&D Systems, cat. no. 664-LI/CF), sequence (O43557 74-240 limits assumed): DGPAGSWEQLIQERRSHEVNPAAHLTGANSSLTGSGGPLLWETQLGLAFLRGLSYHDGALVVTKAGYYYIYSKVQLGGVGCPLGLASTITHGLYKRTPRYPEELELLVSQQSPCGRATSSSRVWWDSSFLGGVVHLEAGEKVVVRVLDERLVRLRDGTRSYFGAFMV

binding result [1] | binding result [2] | binding result [3] | binding result [4] | binding result [5] | IC50, inhibition of IFN-γ production, human whole blood assay [6] [nM] | Binder
no binding | no binding | no binding | binds | binds |  | Clone X-V Fab (Fab, V domains shown, Fab) VH: QVQLVQSGAEVKKPGASVKVSCKASGFDIQDTYMHWVRQAPGQGLEWMGRIDPASGHTKYDPKFQVRATITTDTSASTAYLQLSSLRSEDTAVYYCARSGGLPDFWGQGTTVTVSS VL: EIVLTQSPGTLSLSPGERATLSCRASSSVSYMYWYQQKPGQAPRLLIYATSNLASGIPDRFSGSGSGTDFTLTISRLEPEDFAVYYCQQWSGNPRTFGGGTKLEIK
no binding | no binding | no binding | binds | binds |  | Clone XL3-15 Fab (Fab, V domains shown, Fab) VH: QVQLVQSGAEVKKPGASVKVSCKASGFDIQDTYMHWVRQAPGQGLEWMGRIDPASGHTKYDPKFQGRATITTDTSASTAYLQLSSLRSEDTAVYYCARSGGLPDFWGQGTTVTVSS VL: EIVLTQSPGTLSLSPGERATLSCRASSSVSYMYWYQQKPGQAPRLLIYATSNLASGIPDRFSGSGSGTDFTLTISRLEPEDFAVYYCQQWSRNPRTFGGGTKLEIK
no binding | no binding | no binding | binds | binds |  | Clone XL3-6 Fab (Fab, V domains shown, Fab) VH: QVQLVQSGAEVKKPGASVKVSCKASGFDIQDTYMHWVRQAPGQGLEWMGRIDPASGHTKYDPKFQGRATITTDTSASTAYLQLSSLRSEDTAVYYCARSGGLPDFWGQGTTVTVSS VL: EIVLTQSPGTLSLSPGERATLSCRASSSVSYMYWYQQKPGQAPRLLIYATSNLASGIPDRFSGSGSGTDFTLTISRLEPEDFAVYYCSQWSGNPRTFGGGTKLEIK
no binding | no binding | no binding | binds | binds |  | Clone XL3-10 Fab (Fab, V domains shown, Fab) VH: QVQLVQSGAEVKKPGASVKVSCKASGFDIQDTYMHWVRQAPGQGLEWMGRIDPASGHTKYDPKFQGRATITTDTSASTAYLQLSSLRSEDTAVYYCARSGGLPDFWGQGTTVTVSS VL: EIVLTQSPGTLSLSPGERATLSCRASSSVSYMYWYQQKPGQAPRLLIYATSNLASGIPDRFSGSGSGTDFTLTISRLEPEDFAVYYCQQWSGNPRSFGGGTKLEIK
 |  |  |  |  | 1.26 | clone 47, modified IgG1 / kappa (antibody) heavy: not shown light: EIVLTQSPGTLSLSPGERATLSCRASSSVSYMYWYQQKPGQAPRLLIYATSNLASGIPDRFSGSGSGTDFTLTISRLEPEDFAVYYCQQWEGNPRTFGGGTKLEIKRTVAAPSVFIFPPSDEQLKSGTASVVCLLNNFYPREAKVQWKVDNALQSGNSQESVTEQDSKDSTYSLSSTLTLSKADYEKHKVYACEVTHQGLSSPVTKSFNRGEC
 |  |  |  |  | 0.33 | clone 23, IgG2 / kappa (antibody) heavy: QVQLVQSGAEVKKPGASVKVSCKASGFDIQDTYMHWVRQAPGQGLEWMGRIDPASGHLKYDPKFQNRVTMTRDTSTSTVYMELSSLRSEDTAVYYCARSGGLPDKWGQGTTVTVSSASTKGPSVFPLAPCSRSTSESTAALGCLVKDYFPEPVTVSWNSGALTSGVHTFPAVLQSSGLYSLSSVVTVPSSNFGTQTYTCNVDHKPSNTKVDKTVERKCCVECPPCPAPPVAGPSVFLFPPKPKDTLMISRTPEVTCVVVDVSHEDPEVQFNWYVDGVEVHNAKTKPREEQFNSTFRVVSVLTVVHQDWLNGKEYKCKVSNKGLPAPIEKTISKTKGQPREPQVYTLPPSREEMTKNQVSLTCLVKGFYPSDIAVEWESNGQPENNYKTTPPMLDSDGSFFLYSKLTVDKSRWQQGNVFSCSVMHEALHNHYTQKSLSLSPGK light: EIVLTQSPGTLSLSPGERATLSCRASSSVSYMYWYQQKPGQAPRLLIYATSNLASGIPDRFSGSGSGTDFTLTISRLEPEDFAVYYCQQWEGNPRTFGGGTKLEIKRTVAAPSVFIFPPSDEQLKSGTASVVCLLNNFYPREAKVQWKVDNALQSGNSQESVTEQDSKDSTYSLSSTLTLSKADYEKHKVYACEVTHQGLSSPVTKSFNRGEC
 |  |  |  |  | 1.01 | clone 47, IgG2 / kappa (antibody) heavy: QVQLVQSGAEVKKPGASVKVSCKASGFDIQDTYMHWVRQAPGQGLEWMGRIEPASGHVKYDPKFQTRVTMTRDTSTSTVYMELSSLRSEDTAVYYCARSGGLPDWWGQGTTVTVSSASTKGPSVFPLAPCSRSTSESTAALGCLVKDYFPEPVTVSWNSGALTSGVHTFPAVLQSSGLYSLSSVVTVPSSNFGTQTYTCNVDHKPSNTKVDKTVERKCCVECPPCPAPPVAGPSVFLFPPKPKDTLMISRTPEVTCVVVDVSHEDPEVQFNWYVDGVEVHNAKTKPREEQFNSTFRVVSVLTVVHQDWLNGKEYKCKVSNKGLPAPIEKTISKTKGQPREPQVYTLPPSREEMTKNQVSLTCLVKGFYPSDIAVEWESNGQPENNYKTTPPMLDSDGSFFLYSKLTVDKSRWQQGNVFSCSVMHEALHNHYTQKSLSLSPGK light: EIVLTQSPGTLSLSPGERATLSCRASSSVSYMYWYQQKPGQAPRLLIYATSNLASGIPDRFSGSGSGTDFTLTISRLEPEDFAVYYCQQWEGNPRTFGGGTKLEIKRTVAAPSVFIFPPSDEQLKSGTASVVCLLNNFYPREAKVQWKVDNALQSGNSQESVTEQDSKDSTYSLSSTLTLSKADYEKHKVYACEVTHQGLSSPVTKSFNRGEC
 |  |  |  |  | 0.16 | clone 34, IgG2 / kappa (antibody) heavy: QVQLVQSGAEVKKPGASVKVSCKASGFDIQDTYMHWVRQAPGQGLEWMGRIEPASGHIKYDPKFQGRVTMTRDTSTSTVYMELSSLRSEDTAVYYCARSGGLPDWWGQGTTVTVSSASTKGPSVFPLAPCSRSTSESTAALGCLVKDYFPEPVTVSWNSGALTSGVHTFPAVLQSSGLYSLSSVVTVPSSNFGTQTYTCNVDHKPSNTKVDKTVERKCCVECPPCPAPPVAGPSVFLFPPKPKDTLMISRTPEVTCVVVDVSHEDPEVQFNWYVDGVEVHNAKTKPREEQFNSTFRVVSVLTVVHQDWLNGKEYKCKVSNKGLPAPIEKTISKTKGQPREPQVYTLPPSREEMTKNQVSLTCLVKGFYPSDIAVEWESNGQPENNYKTTPPMLDSDGSFFLYSKLTVDKSRWQQGNVFSCSVMHEALHNHYTQKSLSLSPGK light: EIVLTQSPGTLSLSPGERATLSCRASSSVSYMYWYQQKPGQAPRLLIYATSNLASGIPDRFSGSGSGTDFTLTISRLEPEDFAVYYCQQWEGNPRTFGGGTKLEIKRTVAAPSVFIFPPSDEQLKSGTASVVCLLNNFYPREAKVQWKVDNALQSGNSQESVTEQDSKDSTYSLSSTLTLSKADYEKHKVYACEVTHQGLSSPVTKSFNRGEC
